The record followed here is the nanobody polyreactivity screen of Harvey et al. (2022).

A short description of the data set: yeast display, Sf9 membrane polyspecificity reagent, FACS + sequencing; frameworks hold sequencing errors. Summed up:
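Nanobodies from a synthetic yeast display library (Saccharomyces cerevisiae BJ5465), induced 36–48 hours with galactose, were stained 1 hour at 4 °C with 10% biotinylated, detergent-solubilized Sf9 membrane reagent, enriched on streptavidin microbeads, then FACS-sorted. Anti-HA (expression) and streptavidin (reagent binding) fluorescence set low and high (top ~1%) gates. Polyreactivity labels come from the gate of origin. Genes were colony-PCR amplified, MiSeq 2 × 250 sequenced and filtered by CDR length.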
For the sequence “QVQLVESGGGLVQAGGSLRLSCAASGITFAGYAMGWYRQAPGKERELVAAISRGGSTYYADSVKGRFTISRDNAKNTVYLQMNSLKPEDTAVYYCNTDDQQGYFTYTGWNYNYWGQGTQVTVSS”, the “polyreactivity (PSR sort gate)” value is on record as “high polyreactivity”.

For the sequence “QVQLVESGGGLVQAGGSLRLSCAASGITFARYAMGWYRQAPGKERELVAAISRNAGRTYYADSVKGRFTISRDNAKNTVYLQMNSLKPEDTAVYYCAAVTKSSVPGSRYDYWGQGTQVTVSS”, the “polyreactivity (PSR sort gate)” value is given as “high polyreactivity”.

For the sequence “QVQLVESGGGLVQAGGSLRLSCAASGITFARYAMGWYRQAPGKERELVAAISSRGGRTYYADSVKGRFTISRDNAKNTVYLQMNSLKPEDTAVYYCAADYVWSTISGYWGQGTQVTVSS”, the “polyreactivity (PSR sort gate)” value is listed as “high polyreactivity”.

On to “QVQLVESGGGLVQAGGSLRLSCAASGITFATNTMGWYRQAPGKERELVASINYRGGSTYYADSVKGRFTISRDNAKNTVYLQMNSLKPEDTAVYYCNADIYLEYDYWGQGTQVTVSS”, for which the “polyreactivity (PSR sort gate)” value is “low polyreactivity”.

Turning to “QVQLVESGGGLVQAGGSLRLSCAASGITFAVYTMGWYSQAPGKERELVAAITGSGGRTYYADSVKGRFTISRDNAKNTVYLQMNSLKPEDTAVYYCNAVQRSSRQTFEYWGQGTQVTVSS”, the “polyreactivity (PSR sort gate)” value was “low polyreactivity”.

Consider “QVQLVESGGGLVQAGGSLRLSCAASGITFAYYGMGWYRQAPGKERELVAAISWTGSSTYYADSVKGRFTISRDNAQNTVYLQMNSLKPEDTAVYYCAARQRYRYDYWGQGTQVTVSS”, for which the “polyreactivity (PSR sort gate)” value was “high polyreactivity”.

With “QVQLVESGGGLVQAGGSLRLSCAASGITFDDNAMAWYRQAPGKERELVATISDGGRTYYADSVKGRFTISRDNAKNTVFLQMNILKPEDTGVYYCAAGYPYYHVYGYGYWGQGTLVTVSS”, the “polyreactivity (PSR sort gate)” value is listed as “low polyreactivity”.

Regarding “QVQLVESGGGLVQAGGSLRLSCAASGITFDEYAMGWYRQAPGKERELVAAISWRGAITYYADSVKGRFTISRDNAKNTVYLQMNSLKPEDTAGYYCNADRAYTYVRYYITQDFGYWGQGTQVTVSS”, the “polyreactivity (PSR sort gate)” value is recorded as “high polyreactivity”.

In the case of “QVQLVESGGGLVQAGGSLRLSCAASGITFDEYAMGWYRQAPGKERELVASISAGSTYYADSVKGRFTISRDNAKNTVYLQMNSLKPEDTAVYYCAVVVDYDAYRYWGYDYWGQGTQVTVSS”, the “polyreactivity (PSR sort gate)” value is on record as “high polyreactivity”.

On to “QVQLVESGGGLVQAGGSLRLSCAASGITFDGYAMGWYRQAPGKERELVAAISISGASTYYADSVKGRFTISRDNAKNTVYLQKNSLKPEDTAVYYCAASSWINQYPGDYWGQGTQVTVSS”, for which the “polyreactivity (PSR sort gate)” value is recorded as “high polyreactivity”.

As to “QVQLVESGGGLVQAGGSLRLSCAASGITFDGYAMGWYRQAPGKERELVAAISNTGDTTYYADSVKGRFTISRDNAKNTVYLQMNSLKPEDTAVYYCAGQRYYSYEYWGQGTQVTVSS”, the “polyreactivity (PSR sort gate)” value is “high polyreactivity”.

As to “QVQLVESGGGLVQAGGSLRLSCAASGITFDINAMGWYRQAPGKERELVAAISKSGRTYYADSVKGRFTISRDNAKNTVYLQMNSLKPEDTAVYYCNKVPYPSNDYWGQGTQVTVSS”, the “polyreactivity (PSR sort gate)” value is “high polyreactivity”.

As for “QVQLVESGGGLVQAGGSLRLSCAASGITFDKNTMGWYRQAPGKERELVAAISARGGSTYYADSVKGRFTISRDNAKNTVYLQMNSLKPEDTAVYSCAADYSARYGYWGQGTQVNVSS”, the “polyreactivity (PSR sort gate)” value is given as “high polyreactivity”.

Turning to “QVQLVESGGGLVQAGGSLRLSCAASGITFDKYAMGWNRQAPGKERELDAAISGSDGSTYYADSVKGRFTISRDNAKNTVYLQMNILKPEDTAVYYCAAESEYAGTYEYDYWGQGTQVTVSS”, the “polyreactivity (PSR sort gate)” value is “low polyreactivity”.

Consider “QVQLVESGGGLVQAGGSLRLSCAASGITFDQNAMGWYRQAPGKEREFVAAISVSGGRTYYADSVKGRFTISRDNAKNTVYLQMNSLKPEDTAVYYCAAYGGTRYYYSYYYWGQGTQVTVSS”, for which the “polyreactivity (PSR sort gate)” value was “high polyreactivity”.

Regarding “QVQLVESGGGLVQAGGSLRLSCAASGITFDRNVMGWYRQAPGTERELVAAISKSGGRTYYADSVKGRFRISRDNAKNTDYLQLNSLKPEDTAVYYCNADVYSRKSLHQYEYWGQGTQVTVSS”, the “polyreactivity (PSR sort gate)” value is given as “high polyreactivity”.

In the case of “QVQLVESGGGLVQAGGSLRLSCAASGITFDWNAMGWYRQAPGKEREFVASISRGSGGTYYADSVKGRFTISRDNAKNTVYLQMNSLKPEDTAVYYCAAAVGNTDREYDYWGQGTQVTVSS”, the “polyreactivity (PSR sort gate)” value is given as “low polyreactivity”.

“QVQLVESGGGLVQAGGSLRLSCAASGITFDYNAMGWYRPAPGKERELVASITTNDDSTYYADSVKGRFTISRDNAKNTVYLQINSLKPEDTAVYSCNADQITGQFDYWGQGTQVTVSS”: the “polyreactivity (PSR sort gate)” value is reported as “low polyreactivity”.

In the case of “QVQLVESGGGLVQAGGSLRLSCAASGITFDYNAMGWYRQAPGKERELVASINSGGNTNYADSVKGRFTISRDNAKNTVYLQMNSLKPEDTAVYYCATVSYYLYTRYDYWGQGTQVTVSS”, the “polyreactivity (PSR sort gate)” value is on record as “low polyreactivity”.

Regarding “QVQLVESGGGLVQAGGSLRLSCAASGITFDYYAMGWYRQAPGKERELVASISSDSSTYYADSVKGRFTISRDNAKNTVYLQMNSLKPEDTAVYYCNAGDSEYTYYGYYAFDYWGQGSQVTVSS”, the “polyreactivity (PSR sort gate)” value is reported as “low polyreactivity”.

With “QVQLVESGGGLVQAGGSLRLSCAASGITFDYYAMGWYRQEPGKERELVAAISSAGRTYYADSVKGRFTISRDNAKNTVYLQMNSLKPEDTAVYYCAATAFSYYPYHGDYWGQGTQVTVSS”, the “polyreactivity (PSR sort gate)” value was “high polyreactivity”.

For “QVQLVESGGGLVQAGGSLRLSCAASGITFDYYDMGWYRTAPGKERELVAAISSDGSTYYADSVKGRFTISRDNAKNTVYLQMNSLKPEDTAVYYCNAVAIEPYFYVVYDIFDYWGQGTQVTVSS”, the “polyreactivity (PSR sort gate)” value is recorded as “low polyreactivity”.

As to “QVQLVESGGGLVQAGGSLRLSCAASGITFEGYAMGWYRQAPGKERELVAAIRSSGTSTYYADSVKGRFTISRDNAMNTVYLQMNSLKPEDYAVYYCNRARSSSRYDYWGQGTQGTVSS”, the “polyreactivity (PSR sort gate)” value is on record as “low polyreactivity”.

As for “QVQLVESGGGLVQAGGSLRLSCAASGITFERYAMGWYRQAPGKERELVAAITYRGGSTYYADSVKGRFTISRDNAKNTVYLQMNSLKPEDTAVYYCNRARLRGAYIYWGQGTQVTVSS”, the “polyreactivity (PSR sort gate)” value is “high polyreactivity”.

For the sequence “QVQLVESGGGLVQAGGSLRLSCAASGITFETYALGWSRQAPGKERELVASIDYDGTSTYYADSVKGRFTISRDNAKNTVYLQMNSLKPEDTAVYYCNARDLDNYGWDDEEYDYWGQGTQVSVSS”, the “polyreactivity (PSR sort gate)” value is recorded as “low polyreactivity”.

With “QVQLVESGGGLVQAGGSLRLSCAASGITFEWYDMGWYRQAPGKEKDLVAAISQSGASTYYADSVKGRFTISRDNAKNTVYLQMNSLKPEETAVYYCATRARYVGGYKYNYWGQGTQVTVSS”, the “polyreactivity (PSR sort gate)” value is “high polyreactivity”.

Regarding “QVQLVESGGGLVQAGGSLRLSCAASGITFEYYAMGWYRPAPGKERELVAAIDTGGSTNYADSVKGRFTISRDNAKNTVYLQMNSLKPEDTAVYSCAADWSWWDGEDDHFEYDYWGQGTQVTVSS”, the “polyreactivity (PSR sort gate)” value is “low polyreactivity”.

As to “QVQLVESGGGLVQAGGSLRLSCAASGITFFAYTMGWYRQAHGKERELVASISSSGGSTNYADSVKGRFTISRDNAKNTVYLQMNSLKPEDTAVYYCAARQSLYRGGRWYDYWGQGTQVTVSS”, the “polyreactivity (PSR sort gate)” value was “high polyreactivity”.

Regarding “QVQLVESGGGLVQAGGSLRLSCAASGITFFHYAMGWYRQAPGKERELVATISWRAGSTYADSVKGRFTISRDNAKNTVYLQMNSLKPEDTAVYYCNAVWTYHSGSGGYLFDYWGQGTQVTVSS”, the “polyreactivity (PSR sort gate)” value is “low polyreactivity”.

As to “QVQLVESGGGLVQAGGSLRLSCAASGITFFPYAMGWYRQAPGKERELVASISDGGGTNYAASVKGRFTISRDNAKNTVYLQMNSLKPEDTAVYYCATDASTYAYYGGDYWGQGTQVTVSS”, the “polyreactivity (PSR sort gate)” value is “low polyreactivity”.
